Molecular target: the molecule itself
Experiment: dynamic light scattering + native gel or EMSA; fragment at 0.23 mg/ml in 10 mM phosphate buffer, pH 7.4, 25 °C, immediately after dissolving the lyophilisate; native PAGE 5–12% acrylamide

B1: hTTR(59–127) (domain or fragment)
chain: not shown
notes: transthyretin, human, C-terminal proteolytic fragment Thr59-Glu127 (7757.4 Da) from cleavage at the Leu58-Thr59 bond; also called Thr59-Glu127 peptide; source: cleavage of plasma-purified hTTR by B. subtilis subtilisin, purified by semi-preparative RP-HPLC, lyophilized
Does B1 bind?
Result: binds

From article PMC7733459, “A serine protease secreted from Bacillus subtilis cleaves human plasma transthyretin to generate an amyloidogenic fragment” (Communications Biology, 2020)
